This note sets out measurements from patent publication US20220332848A1 (NANJING GENSCRIPT BIOTECH, published 2022).

The assay addresses T1, human CTLA-4 (human, UniProt P16410 36-223).
T1 construct: whole, on cells; also called CTLA-4 antigen; cytotoxic T lymphocyte-associated antigen 4
T1 sequence (looked up): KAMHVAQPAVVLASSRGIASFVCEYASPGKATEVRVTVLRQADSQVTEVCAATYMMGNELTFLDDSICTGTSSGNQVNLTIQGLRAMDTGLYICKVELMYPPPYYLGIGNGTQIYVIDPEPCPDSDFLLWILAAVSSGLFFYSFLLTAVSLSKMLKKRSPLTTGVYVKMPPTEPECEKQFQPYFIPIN
Briefly: flow cytometry on CHO-K1 cells expressing CTLA-4. The method, then: For the constructed series of bispecific antibodies, the affinity of these samples with antigens was measured by using a flow cytometer. […] Then, an antibody-antigen binding curve was generated based on the geometric mean, raw data of four parameters was plotted by using the […] Prism V6.02 software, and a best fitted value program was compiled to analyze EC₅₀.

B1: bispecific antibody CTLA4-G15-LN (bispecific antibody, human IgG4 S228P, kappa)
light: EVQLVESGGGLVQPGGSLRLSCAASGYTYSRHCLGWFRQAPGKGREAVSTIDSDGSTSYADSVKGRFTISRDNAKNTLYLQMNSLRPEDTAVYYCAIGPNPRYCSGAPNTRGAEHYFGYWGQGTLVTVSSGGGGSGGGGSGGGGSEIVLTQSPATLSLSPGERATLSCRASENVGTYISWYQQKPGQAPRLLIYGASNRYTGIPARFSGSGSGTDFTLTISSLEPEDFAVYYCGESYGHLYTFGGGTKVEIKRTVAAPSVFIFPPSDEQLKSGTASVVCLLNNFYPREAKVQWKVDNALQSGNSQESVTEQDSKDSTYSLSSTLTLSKADYEKHKVYACEVTHQGLSSPVTKSFNRGEC
heavy: not shown
notes: also called L1 + H0
With B1, the binding result is reported as “binds”.

B2: bispecific antibody CTLA4-G9-LN (bispecific antibody, human IgG4 S228P, kappa)
light: EVQLVESGGGLVQPGGSLRLSCAASGYTYSRHCLGWFRQAPGKGREAVSTIDSDGSTSYADSVKGRFTISRDNAKNTLYLQMNSLRPEDTAVYYCAIGPNPRYCSGAPNTRGAEHYFGYWGQGTLVTVSSGGGGSGGGSEIVLTQSPATLSLSPGERATLSCRASENVGTYISWYQQKPGQAPRLLIYGASNRYTGIPARFSGSGSGTDFTLTISSLEPEDFAVYYCGESYGHLYTFGGGTKVEIKRTVAAPSVFIFPPSDEQLKSGTASVVCLLNNFYPREAKVQWKVDNALQSGNSQESVTEQDSKDSTYSLSSTLTLSKADYEKHKVYACEVTHQGLSSPVTKSFNRGEC
heavy: not shown
notes: also called L2 + H0
Turning to B2, the binding result is listed as “binds”.

B3: bispecific antibody CTLA4-E-HN (bispecific antibody, human IgG4 S228P, kappa)
heavy: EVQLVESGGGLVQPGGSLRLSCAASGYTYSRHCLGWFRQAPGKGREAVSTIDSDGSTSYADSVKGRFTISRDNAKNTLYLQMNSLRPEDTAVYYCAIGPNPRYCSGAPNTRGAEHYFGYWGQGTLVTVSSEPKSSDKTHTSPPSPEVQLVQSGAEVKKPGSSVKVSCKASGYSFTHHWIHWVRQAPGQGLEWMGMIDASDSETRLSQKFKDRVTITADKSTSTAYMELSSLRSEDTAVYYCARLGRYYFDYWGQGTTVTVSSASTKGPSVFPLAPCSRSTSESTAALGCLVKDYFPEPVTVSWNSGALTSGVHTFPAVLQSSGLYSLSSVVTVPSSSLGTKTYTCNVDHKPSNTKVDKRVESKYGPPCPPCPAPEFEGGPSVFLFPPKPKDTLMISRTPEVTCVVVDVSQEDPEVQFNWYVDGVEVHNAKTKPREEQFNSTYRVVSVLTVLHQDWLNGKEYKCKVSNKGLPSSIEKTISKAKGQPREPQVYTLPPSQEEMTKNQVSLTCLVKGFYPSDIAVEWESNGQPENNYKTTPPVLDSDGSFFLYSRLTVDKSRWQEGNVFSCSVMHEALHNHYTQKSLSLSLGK
light: EIVLTQSPATLSLSPGERATLSCRASENVGTYISWYQQKPGQAPRLLIYGASNRYTGIPARFSGSGSGTDFTLTISSLEPEDFAVYYCGESYGHLYTFGGGTKVEIKRTVAAPSVFIFPPSDEQLKSGTASVVCLLNNFYPREAKVQWKVDNALQSGNSQESVTEQDSKDSTYSLSSTLTLSKADYEKHKVYACEVTHQGLSSPVTKSFNRGEC
notes: also called H2 + L0
Consider B3, for which the binding result was “binds”.

B4: bispecific antibody CTLA4-E-HC (bispecific antibody, human IgG4 S228P, kappa)
heavy: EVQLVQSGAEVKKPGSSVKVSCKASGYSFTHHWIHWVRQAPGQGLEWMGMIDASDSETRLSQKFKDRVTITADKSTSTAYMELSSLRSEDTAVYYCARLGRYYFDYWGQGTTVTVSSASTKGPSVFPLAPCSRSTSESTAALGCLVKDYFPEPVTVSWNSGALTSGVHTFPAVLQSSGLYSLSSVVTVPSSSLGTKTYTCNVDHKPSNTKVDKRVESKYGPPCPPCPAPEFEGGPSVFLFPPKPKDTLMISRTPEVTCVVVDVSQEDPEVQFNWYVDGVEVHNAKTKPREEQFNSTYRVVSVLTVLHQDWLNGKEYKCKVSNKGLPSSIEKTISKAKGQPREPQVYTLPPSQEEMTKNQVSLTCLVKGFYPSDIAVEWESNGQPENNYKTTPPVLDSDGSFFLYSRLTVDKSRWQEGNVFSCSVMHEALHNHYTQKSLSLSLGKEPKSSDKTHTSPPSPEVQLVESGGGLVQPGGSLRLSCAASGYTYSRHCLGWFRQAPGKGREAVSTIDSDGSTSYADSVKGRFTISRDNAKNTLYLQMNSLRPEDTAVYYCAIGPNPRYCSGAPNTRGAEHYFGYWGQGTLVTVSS
light: EIVLTQSPATLSLSPGERATLSCRASENVGTYISWYQQKPGQAPRLLIYGASNRYTGIPARFSGSGSGTDFTLTISSLEPEDFAVYYCGESYGHLYTFGGGTKVEIKRTVAAPSVFIFPPSDEQLKSGTASVVCLLNNFYPREAKVQWKVDNALQSGNSQESVTEQDSKDSTYSLSSTLTLSKADYEKHKVYACEVTHQGLSSPVTKSFNRGEC
notes: also called H1 + L0
In the case of B4, the binding result is given as “binds”.

B5: bispecific antibody CTLA4-G15-HN (bispecific antibody, human IgG4 S228P, kappa)
heavy: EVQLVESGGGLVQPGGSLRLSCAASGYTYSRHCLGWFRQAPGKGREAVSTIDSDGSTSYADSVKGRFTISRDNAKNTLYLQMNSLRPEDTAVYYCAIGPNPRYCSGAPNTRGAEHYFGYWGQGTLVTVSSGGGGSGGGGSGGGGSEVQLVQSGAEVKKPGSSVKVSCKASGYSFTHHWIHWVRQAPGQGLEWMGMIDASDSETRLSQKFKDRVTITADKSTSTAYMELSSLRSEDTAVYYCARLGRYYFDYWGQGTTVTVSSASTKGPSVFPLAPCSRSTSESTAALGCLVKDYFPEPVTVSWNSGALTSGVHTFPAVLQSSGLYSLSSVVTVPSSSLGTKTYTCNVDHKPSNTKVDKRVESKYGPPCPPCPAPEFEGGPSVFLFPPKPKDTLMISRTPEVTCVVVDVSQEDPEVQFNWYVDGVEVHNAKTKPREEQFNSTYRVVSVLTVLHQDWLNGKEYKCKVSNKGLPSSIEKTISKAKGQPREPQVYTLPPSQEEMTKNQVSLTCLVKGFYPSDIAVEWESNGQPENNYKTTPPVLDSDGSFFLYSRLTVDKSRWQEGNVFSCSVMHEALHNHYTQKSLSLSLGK
light: EIVLTQSPATLSLSPGERATLSCRASENVGTYISWYQQKPGQAPRLLIYGASNRYTGIPARFSGSGSGTDFTLTISSLEPEDFAVYYCGESYGHLYTFGGGTKVEIKRTVAAPSVFIFPPSDEQLKSGTASVVCLLNNFYPREAKVQWKVDNALQSGNSQESVTEQDSKDSTYSLSSTLTLSKADYEKHKVYACEVTHQGLSSPVTKSFNRGEC
notes: also called H4 + L0
Turning to B5, the binding result is “binds”.

B6: bispecific antibody CTLA4-G15-HC (bispecific antibody, human IgG4 S228P, kappa)
heavy: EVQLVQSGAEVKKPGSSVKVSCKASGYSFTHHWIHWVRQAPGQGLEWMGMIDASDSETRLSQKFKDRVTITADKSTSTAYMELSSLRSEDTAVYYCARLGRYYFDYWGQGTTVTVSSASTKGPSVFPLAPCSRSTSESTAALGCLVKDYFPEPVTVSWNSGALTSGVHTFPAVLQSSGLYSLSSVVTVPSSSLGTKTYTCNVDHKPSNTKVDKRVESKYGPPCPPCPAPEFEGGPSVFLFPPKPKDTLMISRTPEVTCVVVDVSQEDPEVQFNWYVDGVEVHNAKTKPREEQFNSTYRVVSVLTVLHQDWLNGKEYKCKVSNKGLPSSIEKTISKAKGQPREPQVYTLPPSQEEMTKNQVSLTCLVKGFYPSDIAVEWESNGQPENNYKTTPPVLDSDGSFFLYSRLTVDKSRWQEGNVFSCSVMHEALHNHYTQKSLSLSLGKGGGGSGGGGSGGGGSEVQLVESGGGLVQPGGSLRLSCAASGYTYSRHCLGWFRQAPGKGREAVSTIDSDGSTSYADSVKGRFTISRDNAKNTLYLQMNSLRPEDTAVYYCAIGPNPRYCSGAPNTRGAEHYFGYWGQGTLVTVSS
light: EIVLTQSPATLSLSPGERATLSCRASENVGTYISWYQQKPGQAPRLLIYGASNRYTGIPARFSGSGSGTDFTLTISSLEPEDFAVYYCGESYGHLYTFGGGTKVEIKRTVAAPSVFIFPPSDEQLKSGTASVVCLLNNFYPREAKVQWKVDNALQSGNSQESVTEQDSKDSTYSLSSTLTLSKADYEKHKVYACEVTHQGLSSPVTKSFNRGEC
notes: also called H3 + L0
With B6, the binding result was “binds”.
